This note sets out measurements from article PMC3587332 (FEBS letters, 2012).

The target of experiment [1] is Pap1-GST (S. cerevisiae, UniProt P29468 1-568). Nature of the experiment: pull-down.
Experiment [2] addresses T1, Pap1-His6 (S. cerevisiae, UniProt P29468 1-568). Kind of experiment: co-IP.
Experiment [3] addresses ΔN-Pap1-His6 (S. cerevisiae, UniProt P29468 19-568). Kind of experiment: co-IP.
Experiment [4] has as its target ΔN-Pap1-GST (S. cerevisiae, UniProt P29468 19-568). Nature of the experiment: pull-down.
In experiment [5] the target is T1, Pap1-His6. Kind of experiment: pull-down.

Sequence of Pap1-GST (P29468 whole entry): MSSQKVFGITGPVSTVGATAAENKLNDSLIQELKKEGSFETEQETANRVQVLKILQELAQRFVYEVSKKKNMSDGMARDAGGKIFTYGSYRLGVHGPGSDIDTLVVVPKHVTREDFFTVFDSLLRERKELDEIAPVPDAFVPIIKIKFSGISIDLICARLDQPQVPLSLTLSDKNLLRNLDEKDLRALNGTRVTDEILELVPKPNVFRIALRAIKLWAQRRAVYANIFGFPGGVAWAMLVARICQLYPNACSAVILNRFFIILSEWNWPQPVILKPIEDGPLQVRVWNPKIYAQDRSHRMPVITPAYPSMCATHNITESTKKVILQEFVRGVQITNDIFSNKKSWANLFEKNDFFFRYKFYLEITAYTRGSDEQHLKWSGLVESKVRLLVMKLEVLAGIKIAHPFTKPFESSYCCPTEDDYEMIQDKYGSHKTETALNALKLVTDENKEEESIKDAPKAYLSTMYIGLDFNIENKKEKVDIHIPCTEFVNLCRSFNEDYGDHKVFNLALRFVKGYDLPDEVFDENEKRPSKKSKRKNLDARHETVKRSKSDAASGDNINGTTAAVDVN
T1 sequence (P29468 whole entry): as above
Sequence of ΔN-Pap1-GST (P29468 19-568, stated change not applied): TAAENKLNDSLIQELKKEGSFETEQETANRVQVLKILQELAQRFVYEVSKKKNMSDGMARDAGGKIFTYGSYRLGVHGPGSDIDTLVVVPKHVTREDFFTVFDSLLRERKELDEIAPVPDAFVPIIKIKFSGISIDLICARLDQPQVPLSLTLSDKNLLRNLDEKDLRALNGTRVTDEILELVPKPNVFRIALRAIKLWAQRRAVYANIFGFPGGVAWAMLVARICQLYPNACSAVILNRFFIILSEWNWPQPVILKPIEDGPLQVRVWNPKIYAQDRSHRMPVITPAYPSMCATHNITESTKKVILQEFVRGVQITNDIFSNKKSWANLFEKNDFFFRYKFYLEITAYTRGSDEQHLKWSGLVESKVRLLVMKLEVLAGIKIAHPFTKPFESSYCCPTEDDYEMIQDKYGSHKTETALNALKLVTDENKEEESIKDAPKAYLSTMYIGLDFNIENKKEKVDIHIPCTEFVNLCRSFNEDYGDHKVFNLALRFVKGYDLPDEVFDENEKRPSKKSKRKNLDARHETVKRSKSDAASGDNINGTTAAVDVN
Sequence of ΔN-Pap1-His6 (P29468 19-568, stated change not applied): as above

B1: Nab6-V5-His6 (the last 210 amino acids) (domain or fragment, S. cerevisiae, UniProt Q03735 925-1134, looked up)
chain: GGGETGTANNTGHENESELEAENENGNETGSFGGLGLAVASSDVKRATSDETDYEDIFNKSSGSSDSSSDVEVIMHSPSDPEYALKSQTLRSSSQTVINSKRPVKIEDEEEAVGMSQLNYRSSLRQAPPRAPSTLSYNHSKNNETPMQDIFTNGETANNRKKKRGSFARHRTIPGSDVMAQYLAQVQHSTFMYAANILGASAEDNTHPDE
In the case of B1, the binding result in experiment [1] was “binds”.

B2: Fip1(1–206) (domain or fragment, S. cerevisiae, UniProt P45976 1-206, looked up)
chain: MSSSEDEDDKFLYGSDSELALPSSKRSRDDEADAGASSNPDIVKRQKFDSPVEETPATARDDRSDEDIYSDSSDDDSDSDLEVIISLGPDPTRLDAKLLDSYSTAATSSSKDVISVATDVSNTITKTSDERLITEGEANQGVTATTVKATESDGNVPKAMTGSIDLDKEGIFDSVGITTIDPEVLKEKPWRQPGANLSDYFNYGFN
As for B2, the binding result in experiment [2], in experiment [3], in experiment [1] and in experiment [4] was “binds” in each case.

B3: Sub1-V5-His6 (natural protein, S. cerevisiae, UniProt P54000 1-292, looked up)
chain: MSYYNRYRNKRRSDNGGGNLSNSNNNNGGMPSGLSASDAIFDLGKNKRVTVRQFRNINLIDIREYYLDSSTGEMKPGKKGISLTEDLYDELLKHRLNIDEALRRLGSKRPKTKMVRLLSDDEYEDDNNNDSTNNDKDKNGKDKNSPKKRREDKSKASNESHDLEPRSKKKKPAPPTLLPHEENIQNAEREANATLIIPGQAGRKQQEERKQKEKEEAEEAKAKAVAEQEKEAKAKEKIAEPEPEPVPTLQAKKEDIVSNINESKDANSSDEEFAQSLEAEMNKAEDDISEEE
For the molecule B3, the binding result in experiment [1] was “binds”.

B4: GST-Pta1 (1–300) (domain or fragment, S. cerevisiae, UniProt Q01329 1-300, looked up)
chain: MSSAEMEQLLQAKTLAMHNNPTEMLPKVLETTASMYHNGNLSKLKLPLAKFFTQLVLDVVSMDSPIANTERPFIAAQYLPLLLAMAQSTADVLVYKNIVLIMCASYPLVLDLVAKTSNQEMFDQLCMLKKFVLSHWRTAYPLRATVDDETDVEQWLAQIDQNIGVKLATIKFISEVVLSQTKSPSGNEINSSTIPDNHPVLNKPALESEAKRLLDMLLNYLIEEQYMVSSVFIGIINSLSFVIKRRPQTTIRILSGLLRFNVDAKFPLEGKSDLNYKLSKRFVERAYKNFVQFGLKNQII
As to B4, the binding result in experiment [5] is reported as “binds”.
